Data taken from PMC6426841, “Reversible histone glycation is associated with disease-related changes in chromatin architecture” (Nature Communications, 2019).
Ends that are not written are not given here.

Molecular target: T1, recombinant His6-tagged wild-type DJ-1 (UniProt Q99497 1-189)
T1 construct: DJ-1 (PARK7), wild type, expressed from the plasmid pET3a-His-DJ1; No removal of the His6 tag is described; The plasmid pET3a-His-DJ1 (Addgene 51488) tells the exact construct; also called PARK7; recombinant DJ-1; source: E. coli Rosetta (DE3), purified (Ni2+-NTA agarose, desalting)
T1 sequence (looked up): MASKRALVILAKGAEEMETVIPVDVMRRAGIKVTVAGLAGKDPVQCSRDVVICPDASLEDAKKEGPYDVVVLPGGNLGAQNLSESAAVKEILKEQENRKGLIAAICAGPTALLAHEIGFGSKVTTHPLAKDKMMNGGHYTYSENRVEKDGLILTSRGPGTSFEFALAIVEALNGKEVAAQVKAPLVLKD
Assay: pull-down; biotinylated H3 (1-18) peptide, glycated or not, incubated with recombinant DJ-1 at 4 °C for 2 h; peptide pulled down on BSA-blocked streptavidin magnetic beads, washed 3 times with 1x PBS pH 7.4, boiled; western blot with anti-DJ-1
Details: both partners purified

B1: glycated (MGO-treated) biotinylated H3 N-terminal tail peptide (residues 1-18) (peptide, UniProt Q71DI3 2-19, looked up)
peptide: ARTKQTARKSTGGKAPRK
modifications: not fully specified (N-terminus, C-terminus); also: MGO glycation adducts, sites not given here
notes: histone H3 N-terminal tail, residues 1-18; The methods speak of 'N-terminal biotinylated H3 peptides', the results of a C-terminal biotin; also called glycated H3 tail; glycated biotin-H3 tail; source: synthetic peptide (Fmoc-SPPS, RP-HPLC purified), treated with MGO at 1:3 peptide:MGO, 37 °C, 30 min; not shown: biotin, C-terminal, kept
binding result: binds
